{
  "source": "patent US6866851",
  "about": "(WASHINGTON UNIVERSITY, dated 2005)",
  "binders": {"B1": {"name": "PGP-F2ac (His-Flag-PGP-F2ac, from mouse persephin and rat GDNF) (ligand)", "chain": "ALAHHHHHHDYKDDDDKGSCRLWSLTLPVAELGLGYASEEKVIFRYCAGSCPQEARTQHSLVLARLRGRGRAHGRPCCQPTAFDDDVTFLDDQHHYHILRKHSAAACGC"}},
  "biological_target": "GFRα2-RET receptor complex (cells transfected with GFRα2 and expressing RET)",
  "assay": "cell-based or functional assay",
  "data": [
    {"binder": "B1", "values": [
      {"measurement": "GFRα2-RET reporter activation relative to GDNF", "value": "< 30 % of GDNF"}
    ]}
  ]
}
